Experimental data published in US20230220021A1 (UNIVERSITY OF COPENHAGEN, published 2023).
Changes are numbered by the printed parent chain. Names may count otherwise. Like-named read-outs stand apart in the source and are kept apart here. Where no end group is shown, it is not given here. [ ]: non-standard residue; d: D form.

How the values were obtained:
[1] = target: T1, (7× His)-PSD-95-PDZ2 wild type (UniProt P78352 160-246); test: ITC, 25 °C
T1 construct: domain: PDZ2; recombinant from E. coli; also called PSD-95-PDZ2 WT; not shown: 7x His tag

[2] = target: T1, (7× His)-PSD-95-PDZ2 wild type; test: FP competition
PSD-95-PDZ2 K165A = target: T2, PSD-95-PDZ2 K165A (UniProt P78352 160-246); test: FP saturation
T2 construct: domain: PDZ2; also called K165 mutation; not shown: 7x His tag

[3] = target: T1, (7× His)-PSD-95-PDZ2 wild type; test: FP saturation
PSD-95-PDZ2 V229A = target: T3, PSD-95-PDZ2 V229A (UniProt P78352 160-246); test: FP saturation
T3 construct: domain: PDZ2; not shown: 7x His tag

PSD-95-PDZ2 K168A = target: T4, PSD-95-PDZ2 K168A; test: FP saturation, TAMRA probe titrated with the protein
T4 chain: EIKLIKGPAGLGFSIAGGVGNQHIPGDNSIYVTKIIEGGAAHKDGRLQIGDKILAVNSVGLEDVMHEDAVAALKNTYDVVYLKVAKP

PSD-95-PDZ2 S173A = target: T5, PSD-95-PDZ2 S173A; test: as above
T5 chain: T4 chain with A9K, S14A

PSD-95-PDZ2 K233A = target: T6, PSD-95-PDZ2 K233A; test: as above
T6 chain: T4 chain with A9K, K74A

PSD-95-PDZ2 N180A = target: T7, PSD-95-PDZ2 N180A; test: as above
T7 chain: T4 chain with A9K, N21A

PSD-95-PDZ2 T192A = target: T8, PSD-95-PDZ2 T192A; test: as above
T8 chain: T4 chain with A9K, T33A

PSD-95-PDZ2 E226A = target: T9, PSD-95-PDZ2 E226A; test: as above
T9 chain: T4 chain with A9K, E67A

PSD-95-PDZ2 K193A = target: T10, PSD-95-PDZ2 K193A; test: as above
T10 chain: T4 chain with A9K, K34A

PSD-95-PDZ2 H225A = target: T11, PSD-95-PDZ2 H225A (UniProt P78352 160-246); test: FP saturation
T11 construct: domain: PDZ2; not shown: 7x His tag

[4] = target: T1, (7× His)-PSD-95-PDZ2 wild type; test: FP competition; remark: listed apart in the source

B1: cyclic nNOS β-hairpin peptide (WT), Cyclo-(THLETTFTGDGTPKTIRVTQpG(Qα)) (peptide)
peptide: cyclo(THLETTFTGDGTPKTIRVTQ[dP]GQ)
SMILES: CC[C@H](C)[C@@H]1NC(=O)[C@H]([C@@H](C)O)NC(=O)[C@H](CCCCN)NC(=O)[C@@H]2CCCN2C(=O)[C@H]([C@@H](C)O)NC(=O)CNC(=O)[C@H](CC(=O)O)NC(=O)CNC(=O)[C@H]([C@@H](C)O)NC(=O)[C@H](Cc2ccccc2)NC(=O)[C@H]([C@@H](C)O)NC(=O)[C@H]([C@@H](C)O)NC(=O)[C@H](CCC(=O)O)NC(=O)[C@H](CC(C)C)NC(=O)[C@H](Cc2c[nH]cn2)NC(=O)[C@H]([C@@H](C)O)NC(=O)[C@H](CCC(N)=O)NC(=O)CNC(=O)[C@H]2CCCN2C(=O)[C@H](CCC(N)=O)NC(=O)[C@H]([C@@H](C)O)NC(=O)[C@H](C(C)C)NC(=O)[C@H](CCCNC(=N)N)NC1=O
notes: also called Cyclic WT; Wild type mimic
For B1, the “-ΔS*T” value [1] was 0.35 kcal/mol, the Kd [1] was 2150 nM and the ΔH [1] was -7.74 kcal/mol.

B2: cyclic nNOS β-hairpin peptide G115P T116E (peptide)
peptide: cyclo(THLETTFTGDPEPKTIRVTQ[dP]GQ)
SMILES: CC[C@H](C)[C@@H]1NC(=O)[C@H]([C@@H](C)O)NC(=O)[C@H](CCCCN)NC(=O)[C@@H]2CCCN2C(=O)[C@H](CCC(=O)O)NC(=O)[C@@H]2CCCN2C(=O)[C@H](CC(=O)O)NC(=O)CNC(=O)[C@H]([C@@H](C)O)NC(=O)[C@H](Cc2ccccc2)NC(=O)[C@H]([C@@H](C)O)NC(=O)[C@H]([C@@H](C)O)NC(=O)[C@H](CCC(=O)O)NC(=O)[C@H](CC(C)C)NC(=O)[C@H](Cc2c[nH]cn2)NC(=O)[C@H]([C@@H](C)O)NC(=O)[C@H](CCC(N)=O)NC(=O)CNC(=O)[C@H]2CCCN2C(=O)[C@H](CCC(N)=O)NC(=O)[C@H]([C@@H](C)O)NC(=O)[C@H](C(C)C)NC(=O)[C@H](CCCNC(=N)N)NC1=O
For B2, the Ki [2] was 22500 nM.

B3: cyclic nNOS β-hairpin peptide T112W G115P (peptide)
peptide: cyclo(THLETTFWGDPTPKTIRVTQ[dP]GQ)
SMILES: CC[C@H](C)[C@@H]1NC(=O)[C@H]([C@@H](C)O)NC(=O)[C@H](CCCCN)NC(=O)[C@@H]2CCCN2C(=O)[C@H]([C@@H](C)O)NC(=O)[C@@H]2CCCN2C(=O)[C@H](CC(=O)O)NC(=O)CNC(=O)[C@H](Cc2c[nH]c3ccccc23)NC(=O)[C@H](Cc2ccccc2)NC(=O)[C@H]([C@@H](C)O)NC(=O)[C@H]([C@@H](C)O)NC(=O)[C@H](CCC(=O)O)NC(=O)[C@H](CC(C)C)NC(=O)[C@H](Cc2c[nH]cn2)NC(=O)[C@H]([C@@H](C)O)NC(=O)[C@H](CCC(N)=O)NC(=O)CNC(=O)[C@H]2CCCN2C(=O)[C@H](CCC(N)=O)NC(=O)[C@H]([C@@H](C)O)NC(=O)[C@H](C(C)C)NC(=O)[C@H](CCCNC(=N)N)NC1=O
Work on B3 yielded a Ki [2] of 950 nM.

For cyclo(C(TAMRA maleimide)THLETTFTGDGTPKTIRVTQ[dP]G) (also called cyclic nNOS TAMRA probe) [cyclic nNOS β-hairpin TAMRA probe, cyclo-(CTHLETTFTGDGTPKTIRVTQpG) labelled with TAMRA], the “fold loss in affinity vs PDZ2 WT” value (PSD-95-PDZ2 K165A) was 4 fold, the Kd [3] was 1000 nM and the “fold loss in affinity vs PDZ2 WT” value (PSD-95-PDZ2 V229A) was 6 fold.

B4: TAMRA labelled C-terminal GluN2B peptide (KLSSIESDV-COOH) (peptide)
peptide: KLSSIESDV-OH
modifications: also: TAMRA label (site not given here)
notes: also called C-terminal GluN2B TAMRA probe; GluN2B canonical peptide
B4: binds (PSD-95-PDZ2 K168A); binds (PSD-95-PDZ2 S173A); binds (PSD-95-PDZ2 K233A). B4: binds (PSD-95-PDZ2 N180A); binds (PSD-95-PDZ2 T192A); binds (PSD-95-PDZ2 E226A). The binding result (PSD-95-PDZ2 K193A) was “binds”, the “fold loss in affinity vs PDZ2 WT” value (PSD-95-PDZ2 K165A) was 5 fold and the Kd [3] was 4000 nM. For the same binder, the “fold loss in affinity vs PDZ2 WT” value (PSD-95-PDZ2 V229A) was 2 fold and the “fold decrease in affinity vs PDZ2 WT” value (PSD-95-PDZ2 H225A) was 5 fold.

Binder TXLETTFTGDGTPKTIRVTQPGQ (cyclic; D-Pro; His(3-Me) at 106) [cyclic nNOS β-hairpin peptide His(3-Me)] has a Ki [4] of 400 nM.

TXLETTFTGDGTPKTIRVTQPGQ (cyclic; D-Pro; His(1-Me) at 106) [cyclic nNOS β-hairpin peptide His(1-Me)] gave a Ki [4] of 2900 nM.
